This note sets out measurements from US20230213527A1, “COMPOSITIONS AND METHODS FOR POLYPEPTIDE ANALYSIS” (Quantum-Si Incorporated, priority 2021, published 2023).

Assay [1] concerns the target N-terminal leucine, isoleucine, and valine. Put plainly: Binding affinity of PS961 (bulk characterization, polarization), N-terminal leucine, isoleucine, valine. The source says: To expand the set of recognizable NAAs, N-end rule pathway proteins were investigated as a source of additional recognizers. In a comprehensive screen of diverse ClpS family proteins, a group of ClpS proteins from the bacterial phylum Planctomycetes with native binding to N-terminal leucine, isoleucine, and valine was discovered. […] The median PD of binding to peptides with N-terminal LAA, IAA, and VAA was 1.21, 0.28, and 0.21 s, respectively, in agreement with bulk characterization (FIG. 7C).
(§1) Binding affinity was measured by polarization using a labeled peptide. The polarization response and total intensity measurements were carried out at 20° C. on a microplate fluorometer with 480 nm excitation and 530 nm emission. The interaction of recognizer with labeled peptide containing a target N-terminal residue (XAKLDEESILKQK-FITC (SEQ ID NO: 833)) was performed in PBS buffer at pH 7.4 and readings were collected after 30 min. Multiple analyses were performed at increasing recognizer concentration at a fixed concentration of a target peptide to obtain a titration curve. An equilibrium polarization response at each concentration was plotted and fit to calculate the KD.

For assay [2], the system named is N-terminal lysine and histidine. Put plainly: Polarization binding assay of PS691, peptides with N-terminal arginine, lysine, histidine. The following applies: compared with N-terminal arginine. The protocol: In a separate screen, a diverse set of UBR-box domains from the UBR family of ubiquitin ligases that natively bind N-terminal arginine, lysine, and histidine were investigated. […] PS691 recognized arginine in a peptide with N-terminal RLA with a median PD of 0.23 s (FIG. 2C).
as §1

B1: PS961: Planctomycetes ClpS variant recognizer for N-terminal leucine, isoleucine, and valine (protein)
chain: MPTAASATESAIEDTPAPARPEVDGRTKPKRQPRYHVVLWDDDDHTYQYVVVMLRSLFGHPPSRGYRMAKEMDTQGRVIVLTTTREHAELKRDQIHAFGRDRLLARSKGSMKASIEAEE
As to B1, in assay [1], the Affinity entry was “sub-micromolar”.

B2: PS691: arginine recognizer generated from the UBR-box domain of K. lactis UBR1 protein (protein)
chain: MHSKFSHAGRICGAKFKVGEPIYRCKECSFDDTCVLCVNCFNPKDHTGHHVYTTICTEFNNGICDCGDKEAWNHTLFCKAEEGGSAGSAAGSGEFMHSKFSHAGRICGAKFKVGEPIYRCKECSFDDTCVLCVNCFNPKDHTGHHVYTTICTEFNNGICDCGDKEAWNHTLFCKAEEGGGSHHHHHHHHHHGGGSGGGSGGGSGLNDFFEAQKIEWHEGGGSGGGSGGGSGLNDFFEAQKIEWHE
On to B2, for which the “Binding to N-terminal lysine and histidine” value in assay [2] is given as “Lower affinity”.
